Source: article PMC4748334

Molecular target: Francisella tularensis polyphosphate kinase 2 (FtPPK2) (Francisella tularensis subspecies tularensis SCHU S4)
Test: crystal structure

Francisella tularensis polyphosphate kinase 2 (FtPPK2) (enzyme)
stoichiometry N: 4
